Changes are numbered by the printed parent chain.
B1: anti-AFP158/HLA-A*02:01-abTCR-6MD (other)
chain 1: EVQLVQSGAEVKKPGESLTISCKASGYSFPNYWITWVRQMSGGGLEWMGRIDPGDSYTTYNPSFQGHVTISIDKSTNTAYLHWNSLKASDTAMYYCARYYVSLVDIWGQGTLVTVSSASTKGPSVFPLAPSSKSTSGGTAALGCLVKDYFPEPVTVSWNSGALTSGVHTFPAVLQSSGLYSLSSVVTVPSSSLGTQTYICNVNHKPSNTKVDKRVEPKSCEVKTDSTDHVKPKETENTKQPSKSCHKPKAIVHTEKVNMMSLTVLGLRMLFAKTVAVNFLLTAKLFFLYPYDVPDYA
chain 2: QSVLTQPASVSGSPGQSITISCTGTSSDVGGYNYVSWYQQHPGKAPKLMIYDVNNRPSEVSNRFSGSKSGNTASLTISGLQAEDEADYYCSSYTTGSRAVFGGGTKLTVLGQPKANPTVTLFPPSSEELQANKATLVCLISDFYPGAVTVAWKADGSPVKAGVETTKPSKQSNNKYAASSYLSLTPEQWKSHRSYSCQVTHEGSTVEKTVAPTECSPIKTDVITMDPKDNCSKDANDTLLLQLTNTSAYYMYLLLLLKSVVYFAIITCCLLRRTAFCCNGEKSDYKDHDGDYKDHDIDYKDDDDK
notes: also called anti-AFP158 abTCR
B2: anti-AFP158/HLA-A*02:01-abTCR-4 (other)
chain 1: QSVLTQPASVSGSPGQSITISCTGTSSDVGGYNYVSWYQQHPGKAPKLMIYDVNNRPSEVSNRFSGSKSGNTASLTISGLQAEDEADYYCSSYTTGSRAVFGGGTKLTVLGQPKANPTVTLFPPSSEELQANKATLVCLISDFYPGAVTVAWKADGSPVKAGVETTKPSKQSNNKYAASSYLSLTPEQWKSHRSYSCQVTHEGSTVEKTVAPTECSESSCDVKLVEKSFETDTNLNFQNLSVIGFRILLLKVAGFNLLMTLRLWSSDYKDHDGDYKDHDIDYKDDDDK
chain 2: EVQLVQSGAEVKKPGESLTISCKASGYSFPNYWITWVRQMSGGGLEWMGRIDPGDSYTTYNPSFQGHVTISIDKSTNTAYLHWNSLKASDTAMYYCARYYVSLVDIWGQGTLVTVSSASTKGPSVFPLAPSSKSTSGGTAALGCLVKDYFPEPVTVSWNSGALTSGVHTFPAVLQSSGLYSLSSVVTVPSSSLGTQTYICNVNHKPSNTKVDKRVEPKSCADCGFTSVSYQQGVLSATILYEILLGKATLYAVLVSALVLMAMVKRKDFYPYDVPDYA
B3: anti-AFP158/HLA-A*02:01-abTCR-3 (other)
chain 1: EVQLVQSGAEVKKPGESLTISCKASGYSFPNYWITWVRQMSGGGLEWMGRIDPGDSYTTYNPSFQGHVTISIDKSTNTAYLHWNSLKASDTAMYYCARYYVSLVDIWGQGTLVTVSSASTKGPSVFPLAPSSKSTSGGTAALGCLVKDYFPEPVTVSWNSGALTSGVHTFPAVLQSSGLYSLSSVVTVPSSSLGTQTYICNVNHKPSNTKVDKRVEPKSCESSCDVKLVEKSFETDTNLNFQNLSVIGFRILLLKVAGFNLLMTLRLWSSDYKDHDGDYKDHDIDYKDDDDK
chain 2: QSVLTQPASVSGSPGQSITISCTGTSSDVGGYNYVSWYQQHPGKAPKLMIYDVNNRPSEVSNRFSGSKSGNTASLTISGLQAEDEADYYCSSYTTGSRAVFGGGTKLTVLGQPKANPTVTLFPPSSEELQANKATLVCLISDFYPGAVTVAWKADGSPVKAGVETTKPSKQSNNKYAASSYLSLTPEQWKSHRSYSCQVTHEGSTVEKTVAPTECSADCGFTSVSYQQGVLSATILYEILLGKATLYAVLVSALVLMAMVKRKDFYPYDVPDYA
B4: anti-AFP158/HLA-A*02:01-abTCR-6 (other)
chain 1: EVQLVQSGAEVKKPGESLTISCKASGYSFPNYWITWVRQMSGGGLEWMGRIDPGDSYTTYNPSFQGHVTISIDKSTNTAYLHWNSLKASDTAMYYCARYYVSLVDIWGQGTLVTVSSASTKGPSVFPLAPSSKSTSGGTAALGCLVKDYFPEPVTVSWNSGALTSGVHTFPAVLQSSGLYSLSSVVTVPSSSLGTQTYICNVNHKPSNTKVDKRVEPKSCDHVKPKETENTKQPSKSCHKPKAIVHTEKVNMMSLTVLGLRMLFAKTVAVNFLLTAKLFFLYPYDVPDYA
chain 2: QSVLTQPASVSGSPGQSITISCTGTSSDVGGYNYVSWYQQHPGKAPKLMIYDVNNRPSEVSNRFSGSKSGNTASLTISGLQAEDEADYYCSSYTTGSRAVFGGGTKLTVLGQPKANPTVTLFPPSSEELQANKATLVCLISDFYPGAVTVAWKADGSPVKAGVETTKPSKQSNNKYAASSYLSLTPEQWKSHRSYSCQVTHEGSTVEKTVAPTECSMDPKDNCSKDANDTLLLQLTNTSAYYMYLLLLLKSVVYFAIITCCLLRRTAFCCNGEKSDYKDHDGDYKDHDIDYKDDDDK
B5: anti-AFP158/HLA-A*02:01-abTCR-5 (other)
chain 1: QSVLTQPASVSGSPGQSITISCTGTSSDVGGYNYVSWYQQHPGKAPKLMIYDVNNRPSEVSNRFSGSKSGNTASLTISGLQAEDEADYYCSSYTTGSRAVFGGGTKLTVLGQPKANPTVTLFPPSSEELQANKATLVCLISDFYPGAVTVAWKADGSPVKAGVETTKPSKQSNNKYAASSYLSLTPEQWKSHRSYSCQVTHEGSTVEKTVAPTECSDHVKPKETENTKQPSKSCHKPKAIVHTEKVNMMSLTVLGLRMLFAKTVAVNFLLTAKLFFLYPYDVPDYA
chain 2: EVQLVQSGAEVKKPGESLTISCKASGYSFPNYWITWVRQMSGGGLEWMGRIDPGDSYTTYNPSFQGHVTISIDKSTNTAYLHWNSLKASDTAMYYCARYYVSLVDIWGQGTLVTVSSASTKGPSVFPLAPSSKSTSGGTAALGCLVKDYFPEPVTVSWNSGALTSGVHTFPAVLQSSGLYSLSSVVTVPSSSLGTQTYICNVNHKPSNTKVDKRVEPKSCMDPKDNCSKDANDTLLLQLTNTSAYYMYLLLLLKSVVYFAIITCCLLRRTAFCCNGEKSDYKDHDGDYKDHDIDYKDDDDK
B6: anti-AFP158/HLA-A*02:01 abTCR with IgG1 CH1 domain (other)
heavy: EVQLVQSGAEVKKPGESLTISCKASGYSFPNYWITWVRQMSGGGLEWMGRIDPGDSYTTYNPSFQGHVTISIDKSTNTAYLHWNSLKASDTAMYYCARYYVSLVDIWGQGTLVTVSSASTKGPSVFPLAPSSKSTSGGTAALGCLVKDYFPEPVTVSWNSGALTSGVHTFPAVLQSSGLYSLSSVVTVPSSSLGTQTYICNVNHKPSNTKVDKRVEPKSCEVKTDSTDHVKPKETENTKQPSKSCHKPKAIVHTEKVNMMSLTVLGLRMLFAKTVAVNFLLTAKLFFL
light: QSVLTQPASVSGSPGQSITISCTGTSSDVGGYNYVSWYQQHPGKAPKLMIYDVNNRPSEVSNRFSGSKSGNTASLTISGLQAEDEADYYCSSYTTGSRAVFGGGTKLTVLGQPKANPTVTLFPPSSEELQANKATLVCLISDFYPGAVTVAWKADGSPVKAGVETTKPSKQSNNKYAASSYLSLTPEQWKSHRSYSCQVTHEGSTVEKTVAPTECSPIKTDVITMDPKDNCSKDANDTLLLQLTNTSAYYMYLLLLLKSVVYFAIITCCLLRRTAFCCNGEKS
B7: anti-AFP158/HLA-A*02:01 abTCR with IgG4 CH1 domain (other)
heavy: B6 heavy with S131C, K133R, G137E, G138S, Q196K, I199T, N203D, P217S, S219Y, C220G
light: B6 light

What follows are binders tested against T1, PE-labeled AFP158/HLA-A*02:01 tetramer (human, biotinylated via the BSP peptide linked to the C-terminal end of the HLA-A*02:01 extracellular domain) (assay: flow cytometry; Jurkat cells transduced with the construct, stained with PE-labelled AFP158/HLA-A*02:01 tetramer).
T1 construct: monomers single chain; also called AFP158 tetramer; AFP158/HLA-A*02:01 tetramers; not shown: BSP peptide (BirA biotinylation site) at the C-terminus

| % of cells in gate high [%] | % of cells in gate low [%] | % of cells in gate negative [%] | Binder |
| --- | --- | --- | --- |
| 19 | 9.54 | 71.5 | B1 |
| 0.574 | 12.3 | 87.1 | B2 |
| 3.7 | 56.2 | 40.2 | B3 |
| 6.17 | 4.36 | 89.5 | B4 |
| 7.64 | 3.7 | 88.7 | B5 |

What follows are binders tested against T1, PE-labeled AFP158/HLA-A*02:01 tetramer (assay: flow cytometry; J.RT3-T3.5 cells transduced with the construct, stained with PE-labelled AFP158/HLA-A*02:01 tetramer).

| % of cells in gate high [%] | % of cells in gate low [%] | % of cells in gate negative [%] | Binder |
| --- | --- | --- | --- |
| 24.2 | 13.8 | 63.4 | B1 |
| 0.928 | 19.1 | 80.1 | B2 |
| 5.68 | – | 19.5 | B3 |
| 8 | 5.35 | 87.2 | B4 |
| 9.41 | 4.98 | 86.1 | B5 |

What follows are binders tested against T1, PE-labeled AFP158/HLA-A*02:01 tetramer (assay: flow cytometry, AFP158 tetramer binding on transduced T cells).
Description: Primary human T-cells were used for transduction after one-day stimulation with CD3/CD28 beads (Dynabeads®, Invitrogen) in the presence of interleukin-2 (IL-2) at 100 U/ml. Concentrated lentiviruses were applied to T-cells in Retronectin-(Takara) coated 6-well plates for 96 hours. Transduction efficiencies of the anti-AFP and anti-CD19 chimeric constructs were assessed by flow cytometry, using biotinylated AFP158/HLA-A*02:01 tetramer (“AFP158 tetramer”) with PE-conjugated streptavidin or anti-myc antibody respectively. Repeat flow cytometry analyses were done on day 5 and every 3-4 days thereafter.
Specific lysis was measured after 16 hr incubation using the Cytox 96 Non-radioactive Cytotoxicity Assay (Promega).

| AFP 158 tetramer+ (percent) | Binder |
| --- | --- |
| 64.5 | B6 |
| 22.2 | B7 |

— US20220348629A1 (EUREKA THERAPEUTICS, published 2022)
